Test results taken from patent publication US20250215071A1, “Novel Mcl-1 inhibitor and combination of Mcl-1 and a BH3 mimetic, such as a Bcl-2 inhibitor” (NETRIS PHARMA, priority 2022, published 2025).

Experiments:
H322 cells = assay: Xenografts of stable H322 cells in nude mice, tumor growth; assay type: in vivo, NMRI nude mice; conditions: 10 mg/Kg intravenously three times per week, vs Iso-mAb
Procedure: FIG. 3. COMMD2 is required for UNC5B-induced cell death and tumor suppression. (A): Silencing COMMD2 inhibits UNC5B-induced DNA fragmentation. Stable Hela cells inducible for UNC5B were transfected with two distinct siRNA scramble (siCTRL) or targeting COMMD2 (siCOMMD2-1 and -2). Upon treatment for 18 hours with the indicated concentrations of doxycycline (Dox), DNA fragmentation was evaluated through FACS analysis (n=3, **** p<0.0001, Ordinary two-way ANOVA). Values are given as means±SEM. (B, C, D): Tumor growth inhibition driven by netrin-1 interference necessitates UNC5B and COMMD2. NMRI nude mice were engrafted with stable H322 cells, knock-down for luciferase (sgLUC, used as a non-targeting control), UNC5B (sgUNC5B) or COMMD2 (sgCOMMD2), generated with CRISPR-Cas-9-KRAB strategy. Tumors obtained from nude mice engrafted with stable H322 cells were lysed and gene expression was evaluated by quantitative RT-PCR (n=2-3, *p<0.05, Kruskal-Wallis test with Dunn's multiple comparisons test) (B). After tumor volume reached 50 mm^3, mice were intravenously treated three time per week with anti-netrin-1 (NP137) or control (Iso-mAb) antibodies and tumor growth was evaluated (n=10 mice/group, ^nsp>0.05, *p<0.05, Mann-Whitney test, two-tailed) (C). A histogram illustrating tumor volumes at 35 days after first treatment is indicated in (D) (n=10 mice/group, ^nsp>0.05, *p<0.05, *** p<0.001, Kruskal-Wallis test with uncorrected Dunn's test). (E). Silencing of UNC5B and COMMD2 restrains in vivo NP137-induced apoptosis. After sacrificing the mice, tumors were resected and apoptosis was quantified by immunostaining of active cleaved caspase-3. […]
5-week-old female athymic NMRI nude mice were obtained from Janvier Labs (Saint Bertevin, France). […] Tumor size was measured three times per week with a caliper. Tumor volume was calculated according to the formula v=0.5× (l×w2), where v is volume, l is length, and w is width. […]

[1] = human, in vivo; cited from earlier work

B1: NP137: humanized anti-netrin-1 monoclonal antibody, VH SEQ ID NO: 22, VL SEQ ID NO: 16, human IgG1 (antibody, V domains shown)
VH: QVQLQQSGPGLVKPSQTLSLTCAISGYTFTSYNMHWVRQATGQGLEWMGAIYPGNGDTSYNQKFKGRLTISKDTSKNQVVLTMTNMDPVDTATYYCARGGTGFAYWGQG
VL: DIQMTQSPSSLSASVGDRVTITCKASQSVSNDVAWYQQKPGQAPRLLIYYASNRYTGIPPRFSGSGYGTDFTLTINNIESEDAAYYFCQQDYSSPWTFGQG
modifications: human IgG1 constant region; humanized variant; MISC_FEATURE - CDR according to IGMT
tumor growth (H322 cells; H322 tumors knocked-out of COMMD2 (sgCOMMD2)): less sensitive
tumor growth (H322 cells; H322 tumors knocked-out of UNC5B (sgUNC5B)): less sensitive
tumor growth (H322 cells; control H322 cells (sgLUC)): strongly inhibited tumor growth
safety profile [1]: extremely good safety profile
